Source: patent US20160244528A1 (SORRENTO THERAPEUTICS, published 2016)

T1: mouse CD137/Fc (mouse, UniProt P20334 24-187)
T1 construct: Coated on the ELISA plate at 2 µg/mL; also called murine CD137; not shown: Fc part
T1 sequence (looked up): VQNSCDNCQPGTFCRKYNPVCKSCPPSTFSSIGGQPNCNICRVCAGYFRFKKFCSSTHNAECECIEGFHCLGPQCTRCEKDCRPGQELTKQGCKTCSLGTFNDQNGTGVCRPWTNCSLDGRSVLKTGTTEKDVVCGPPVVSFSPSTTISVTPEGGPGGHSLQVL


How the values were obtained:
[1] = biological target: T2, Recombinant human CD137/His (human, UniProt Q07011 24-186); assay: SPR (Biacore), antibody captured on anti-human Fc, human CD137/His as analyte, 1:1 fit
T2 construct: Analyte of the SPR assay; also called 4-1BB; TNFRSF9; not shown: His tag
Description: This example illustrates binding affinities of exemplary anti-CD137 antibodies disclosed herein. Affinities were determined using surface plasmon resonance (Biacore). Briefly, anti-human Fc antibody (GE, BR-1008-39) was immobilized on CM5 sensor chip to approximately 1000 RU using standard NHS/EDC coupling methodology. Antibodies (about 10 μg/ml) were captured for 60 s at a flow rate 10 μl/min Recombinant human CD137/His was serially diluted in running buffer (HBS-EP). All measurements were conducted with a flow rate of 30 μL/min Surfaces were regenerated with 3M MgCl₂ for 60 s. A 1:1 (Langmuir) binding model was used to fit the data.

[2] = biological target: T1, mouse CD137/Fc; assay: ELISA, plate coated with mouse CD137/Fc at 2 µg/mL, detection with HRP anti-human Lambda, OD 450 nm
Description: A Maxisorp plate was coated with recombinant human CD137/Fc or mouse CD137/Fc at 2 μg/mL at 4° C., overnight. The plate was blocked for 1 hour at room temperature, washed 3 times with PBS-Tween (PBST), then anti-CD137 antibodies (˜1 μg/mL) diluted in casein were added and incubated for 30 min with shaking. The plate was washed 3 times with PBST, horseradish peroxidase (HRP)-conjugated mouse anti-human Lambda (1:1000 in casein) was added, then 3,3′,5,5′-Tetramethylbenzidine (TMB) was added as substrate and developed about 5 min. 2M H₂SO₄ was used to stop the reaction and the OD was read at 450 nm.

Row | Kd [1] [nM] | koff [1] [s⁻¹] | kon [1] [M⁻¹ s⁻¹] | binding result [2] | Ka [1] [M⁻¹] | Binder
1 | – | 0.0615 | 282000 | no binding | – | anti-CD137 antibody MSC8 (antibody, V domains shown, Variant of D6 with the same light chain variable domain) VH: QMQLVQSGAEVKKPGASVKVSCKASGYNFGGYYMHWVRQAPGQGLEWMGWVNPKSGGTNYAQKFQGRVTITRDTSASTAYMELSSLRSEDTAVYYCAREGEAVGLDLDYWGQGTLVTVSS VL: SYELTQPPSVSVAPGKTARITCGGNNIGSKSVHWYQQKPGQAPVLVIYYDSDRPSGIPERFSGSNSGNTATLTISRVEAGDEADYYCQVWDSSSVVFGGGTQLTVL
2 | – | 0.0324 | 369000 | – | 1.14e+07 | anti-CD137 antibody MSH1 (antibody, V domains shown, Variant of D6 with the same light chain variable domain) VH: QMQLVQSGAEVKKPGASVKVSCKASGYNFGGYYMHWVRQAPGQGLEWMGWVNPHSGGTNYAQKFQGRVTITRDTSASTAYMELSSLRSEDTAVYYCAREGEAWGLDLDLWGQGTLVTVSS VL: SYELTQPPSVSVAPGKTARITCGGNNIGSKSVHWYQQKPGQAPVLVIYYDSDRPSGIPERFSGSNSGNTATLTISRVEAGDEADYYCQVWDSSSVVFGGGTQLTVL
3 | – | 0.00756 | 456000 | – | 6.03e+07 | anti-CD137 antibody MSB7 (antibody, V domains shown, Variant of D6 with the same light chain variable domain) VH: QMQLVQSGAEVKKPGASVKVSCKASGYSFSGYYMHWVRQAPGQGLEWMGWVNPMSGGTNYAQKFQGRVTITRDTSASTAYMELSSLRSEDTAVYYCAREGMAMRLELDKWGQGTLVTVSS VL: SYELTQPPSVSVAPGKTARITCGGNNIGSKSVHWYQQKPGQAPVLVIYYDSDRPSGIPERFSGSNSGNTATLTISRVEAGDEADYYCQVWDSSSVVFGGGTQLTVL
4 | – | 0.00631 | 135000 | – | 2.13e+07 | anti-CD137 antibody MSA11 (antibody, V domains shown, Variant of D6 with the same light chain variable domain) VH: QMQLVQSGAEVKKPGASVKVSCKASGYSFTGYYMHWVRQAPGQGLEWMGWVNPKSGGTNYAQKFQGRVTITRDTSASTAYMELSSLRSEDTAVYYCAREGWARRIDLDEWGQGTLVTVSS VL: SYELTQPPSVSVAPGKTARITCGGNNIGSKSVHWYQQKPGQAPVLVIYYDSDRPSGIPERFSGSNSGNTATLTISRVEAGDEADYYCQVWDSSSVVFGGGTQLTVL

The remaining lines, values behind:

Row | Binder | Kd [1] [nM] | koff [1] [s⁻¹] | kon [1] [M⁻¹ s⁻¹] | binding result [2] | Ka [1] [M⁻¹]
5 | anti-CD137 antibody D6 (antibody, V domains shown, Fully human antibody, captured through anti-human Fc in SPR and detected with anti-human Lambda in ELISA) VH: QMQLVQSGAEVKKPGASVKVSCKASGYTFTGYYMHWVRQAPGQGLEWMGWINPNSGGTNYAQKFQGRVTITRDTSASTAYMELSSLRSEDTAVYYCAREGEAVGLDLDYWGQGTLVTVSS VL: SYELTQPPSVSVAPGKTARITCGGNNIGSKSVHWYQQKPGQAPVLVIYYDSDRPSGIPERFSGSNSGNTATLTISRVEAGDEADYYCQVWDSSSVVFGGGTQLTVL | 203 | 0.0814 | 401000 | no binding | –
6 | anti-CD137 antibody MC8 (antibody, V domains shown, Variant of D6 with the same light chain variable domain) VH: QMQLVQSGAEVKKPGASVKVSCKASGYMPDGYYMHWVRQAPGQGLEWMGWINPRTGGTNYAQKFQGRVTITRDTSASTAYMELSSLRSEDTAVYYCAREGAAFRLELDAWGQGTLVTVSS VL: SYELTQPPSVSVAPGKTARITCGGNNIGSKSVHWYQQKPGQAPVLVIYYDSDRPSGIPERFSGSNSGNTATLTISRVEAGDEADYYCQVWDSSSVVFGGGTQLTVL | – | 0.00628 | 208000 | – | 3.32e+07
7 | anti-CD137 antibody MB3 (antibody, V domains shown, Variant of D6 with the same light chain variable domain) VH: QMQLVQSGAEVKKPGASVKVSCKASGYQMRGYYMHWVRQAPGQGLEWMGWINPNSGGTNYAQKFQGRVTITRDTSASTAYMELSSLRSEDTAVYYCAREGEAVGLDLDYWGQGTLVTVSS VL: SYELTQPPSVSVAPGKTARITCGGNNIGSKSVHWYQQKPGQAPVLVIYYDSDRPSGIPERFSGSNSGNTATLTISRVEAGDEADYYCQVWDSSSVVFGGGTQLTVL | – | 0.0678 | 296000 | no binding | –
8 | anti-CD137 antibody MD4 (antibody, V domains shown, Variant of D6 with the same light chain variable domain) VH: QMQLVQSGAEVKKPGASVKVSCKASGYNWTGYYMHWVRQAPGQGLEWMGWINPMAGGTNYAQKFQGRVTITRDTSASTAYMELSSLRSEDTAVYYCAREGWARGVELDMWGQGTLVTVSS VL: SYELTQPPSVSVAPGKTARITCGGNNIGSKSVHWYQQKPGQAPVLVIYYDSDRPSGIPERFSGSNSGNTATLTISRVEAGDEADYYCQVWDSSSVVFGGGTQLTVL | 88.9 | 0.0512 | 576000 | – | 1.12e+07
9 | anti-CD137 antibody MB12 (antibody, V domains shown, Variant of D6 with the same light chain variable domain) VH: QMQLVQSGAEVKKPGASVKVSCKASGYSLEGYYMHWVRQAPGQGLEWMGWINPNSGGTNYAQKFQGRVTITRDTSASTAYMELSSLRSEDTAVYYCAREGEAVGLDLDYWGQGTLVTVSS VL: SYELTQPPSVSVAPGKTARITCGGNNIGSKSVHWYQQKPGQAPVLVIYYDSDRPSGIPERFSGSNSGNTATLTISRVEAGDEADYYCQVWDSSSVVFGGGTQLTVL | – | 0.0669 | 433000 | no binding | 6.47e+06
